# Tests used:
# [1] = target: IL-18 polypeptide SEQ ID NO: 30 (E6K, V11I, C38A, K53A, T63A, C76A, C127A) (human) (UniProt Q14116); assay: cell-based or functional assay
# [2] = target: native IL-18 wild-type (SEQ ID NO: 1) (human) (UniProt Q14116); assay: cell-based or functional assay
substance,measurement,setting,value
His-tag human IL-18 binding protein isoform a (from UniProt O95998 31-194),"IC50 of IL-18BPa on IFNγ secretion, PD-1^negative Parental NK-92",[1],110 nM
same,"IC50 of IL-18BPa on IFNγ secretion, PD-1^positive NK-92",[1],80.3 nM
same,"IC50 of IL-18BPa on IFNγ secretion, PD-1^negative Parental NK-92",[2],2.97 nM
same,"IC50 of IL-18BPa on IFNγ secretion, PD-1^positive NK-92",[2],2.67 nM

# Reference: patent US20250188166A1
